T1: trypsin inhibitor type IV-0 (Ovo-inhibitor), Sigma T-1886, P10184
T1 chain: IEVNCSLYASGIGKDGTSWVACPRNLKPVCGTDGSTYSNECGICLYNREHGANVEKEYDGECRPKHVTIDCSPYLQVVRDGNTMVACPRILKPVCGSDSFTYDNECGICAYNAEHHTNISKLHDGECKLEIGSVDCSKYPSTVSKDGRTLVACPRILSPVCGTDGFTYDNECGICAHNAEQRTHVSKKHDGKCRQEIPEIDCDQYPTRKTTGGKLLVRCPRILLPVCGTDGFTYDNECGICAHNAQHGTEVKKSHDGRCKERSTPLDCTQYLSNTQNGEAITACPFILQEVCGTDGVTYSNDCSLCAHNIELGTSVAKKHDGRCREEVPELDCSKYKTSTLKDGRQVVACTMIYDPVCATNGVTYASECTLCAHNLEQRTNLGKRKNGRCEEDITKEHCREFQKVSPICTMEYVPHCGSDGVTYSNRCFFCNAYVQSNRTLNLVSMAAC

T2: trypsin inhibitor type IV-0 (Ovo-inhibitor), Sigma T-1886 (UniProt P10184)
T2 sequence: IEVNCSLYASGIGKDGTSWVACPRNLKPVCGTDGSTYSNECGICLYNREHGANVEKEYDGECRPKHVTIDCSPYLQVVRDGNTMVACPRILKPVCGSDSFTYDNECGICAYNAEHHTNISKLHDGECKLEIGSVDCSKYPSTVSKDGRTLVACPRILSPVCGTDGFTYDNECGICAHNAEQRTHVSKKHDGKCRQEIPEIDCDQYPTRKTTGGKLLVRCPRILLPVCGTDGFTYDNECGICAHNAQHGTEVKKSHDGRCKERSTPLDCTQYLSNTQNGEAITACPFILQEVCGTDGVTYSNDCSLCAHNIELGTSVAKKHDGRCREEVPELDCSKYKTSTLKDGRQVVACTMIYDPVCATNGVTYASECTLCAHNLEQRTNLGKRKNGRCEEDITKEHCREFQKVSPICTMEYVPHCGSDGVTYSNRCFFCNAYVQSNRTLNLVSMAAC

B1: SAVINASE (subtilisin 309 from B. lentus) (protein)
chain: AQSVPWGISRVQAPAAHNRGLTGSGVKVAVLDTGISTHPDLNIRGGASFVPGEPSTQDGNGHGTHVAGTIAALNNSIGVLGVAPSAELYAVKVLGASGSGSVSSIAQGLEWAGNNGMHVANLSLGSPSPSATLEQAVNSATSRGVLVVAASGNSGAGSISYPARYANAMAVGATDQNNNRASFSQYGAGLDIVAPGVNVQSTYPGSTYASLNGTSMATPHVAGAAALVKQKNPSWSNVQIRNHLKNTATSLGSTNLYGSGLVNAEAATR

Several values for one entry are separate records, joined by “and”; a condition that tells them apart may be missing. Equal entries are not always repeated.

Data on nine molecules can be found in patent publication US20020155575.

The first series deals with T1, trypsin inhibitor type IV-0 ….
Regarding B1, the “Residual Activity (%)” value is given as below 5%.

A further series has as its target T2, trypsin inhibitor type IV-0 (Ovo-inhibitor), Sigma T-1886.
Take subtilisin 309 variant L42LN: the “Residual Activity (%)” value was determined as 69.2%.
On to “subtilisin 309 variant L217LP + S99SD + S99A”, for which the “Residual Activity (%)” value amounted to 97.0%.
For “subtilisin 309 variant S99D + S101R + S103A + V104I + G160S + A194P + V199M + V205I + *216aD”, the “Residual Activity (%)” value came to 24.0%.
Same read-out and setting: the value for “subtilisin 309 variant S99D + S101R + S103A + V104I + G160S + A194P + V199M + V205I + *216aE” was 25.4%; that for “subtilisin 309 variant S99SD + S99A + N155NA” was 7.4%; that for “subtilisin 309 variant S99SD + S99A + N155ND” was 10.7% and 7.1%.
Still for that read-out and setting: the same measure for “subtilisin 309 variant S99SD + S99A + N155NR”: 6.5%; for “subtilisin 309 variant S99SD + S99A + S216SDP”: 35.0%.
